{"source": "paper PMC10493288", "about": "“Identification and characterization of a novel chromosomal aminoglycoside 3’-O-phosphotransferase, APH(3′)-Id, from Kluyvera intermedia DW18 isolated from the sewage of an animal farm” (Frontiers in Microbiology, 2023)", "experiment_in_all_cases": "purified protein", "type_in_all_cases": "biochemical, Kluyvera intermedia", "conditions_in_all_cases": "1 mM ATP, 1 mM MgCl2, 2 mM KCl, 100 mM HEPES pH 7.5", "key": {"[1]": {"test_system": "NC[C@H]1O[C@H](O[C@H]2[C@H](O[C@@H]3O[C@H](CO)[C@@H](O)[C@H]3O)[C@@H](O)[C@H](N)C[C@@H]2N)[C@H](N)[C@@H](O)[C@@H]1O"}, "[2]": {"test_system": "NC[C@@H]1O[C@H](O[C@H]2[C@@H](O)[C@H](O[C@@H]3[C@@H](O)[C@H](N)C[C@H](N)[C@H]3O[C@H]3O[C@H](CO)[C@@H](O)[C@H](O)[C@H]3N)O[C@@H]2CO)[C@H](N)[C@@H](O)[C@@H]1O"}, "[3]": {"test_system": "NC[C@H]1O[C@H](O[C@H]2[C@H](O)[C@@H](O[C@H]3O[C@H](CO)[C@@H](O)[C@H](N)[C@H]3O)[C@H](N)C[C@@H]2N)[C@H](O)[C@@H](O)[C@@H]1O"}}, "data": [{"substance": "APH(3′)-Id (Kluyvera intermedia)", "values": [{"measurement": "Km", "setting": "[1]", "result": "3.831 ± 1.57", "unit": "µM"}, {"measurement": "kcat", "setting": "[1]", "result": "1.73 ± 0.023", "unit": "s⁻¹"}, {"measurement": "kcat/Km", "setting": "[1]", "result": "496000 ± 163000", "unit": "M⁻¹ s⁻¹"}, {"measurement": "Km", "setting": "[2]", "result": "12.19 ± 1.56", "unit": "µM"}, {"measurement": "kcat", "setting": "[2]", "result": "2.64 ± 0.072", "unit": "s⁻¹"}, {"measurement": "kcat/Km", "setting": "[2]", "result": "218000 ± 21000", "unit": "M⁻¹ s⁻¹"}, {"measurement": "Km", "setting": "[3]", "result": "10.04 ± 2.95", "unit": "µM"}, {"measurement": "kcat", "setting": "[3]", "result": "1.06 ± 0.114", "unit": "s⁻¹"}, {"measurement": "kcat/Km", "setting": "[3]", "result": "110000 ± 18000", "unit": "M⁻¹ s⁻¹"}]}]}
